Target: filamentous actin polymerized from human platelet actin (human) (UniProt P60709)
Test: co-sedimentation

Row | percent reduction of actin-binding activity relative to WT | Substance
1 | 43% | human MAP2C T293E (from UniProt P11137-2 1-471) (natural protein)
2 | 43% | human MAP2C T300E (from UniProt P11137-2 1-471) (natural protein)

— paper PMC10539048
